Decrease of SANS scattering intensity data for 2 molecules are collected here from PMC10682421.

Where only a bound is given, the exact number is not on record here.

Assay [1] addresses amyloid beta peptide Aβ 1–42 (fibrils).
For assay [2], the target named is amyloid beta peptide Aβ 3–28 (fibrils).

The molecule “human cystatin C (wild type) (from UniProt P01034 27-146) (natural protein)” displayed a decrease of SANS scattering intensity at q < 0.01 between the beginning (300 s) and the end of the kinetic experiment (fibril disaggregation; 37 °C, deuterated HCC 1 mg/mL) in assay [1] of 4%.

B1: human cystatin C (wild type) (natural protein)
chain: SSPGKPPRLVGGPMDASVEEEGVRRALDFAVGEYNKASNDMYHSRALQVVRARKQIVAGVNYFLDVELGRTTCTKTQPNLDNCPFHDQPHLKRKAFCSFQIYAVPWQGTMTLSKSTCQDA
modifications: 2H-labelled (deuterated) in D-HCC; protonated in H-HCC
In assay [2], B1 had a decrease of SANS scattering intensity at q < 0.01 between the beginning (300 s) and the end of the kinetic experiment (fibril disaggregation; 37 °C, deuterated HCC 1 mg/mL, 1–10 h) above 70%.
